Experimental data as given in PMC5928113, “Properties of the ternary complex formed by yeast eIF4E, p20 and mRNA” (Scientific Reports, 2018).

Assays:
[1] = molecular target: T1, eIF4E (untagged, co-expressed with p20);His6x-p20 6x mutant R55L;R56L;R57L;H60L;H61L;H62L (Saccharomyces cerevisiae;Saccharomyces cerevisiae) (UniProt P07260+P12962); assay: EMSA; conditions: 5' m7GpppG cap (Vaccinia Capping System); Buffer A: 10 mM sodium phosphate pH 7.5, 100 mM NaCl, 2.5 mM MgCl2, 1 mM DTT, 0.05% NP40; MST at 25 C (proteins for capped RNA MST RED-tris-NTA labeled in …)
T1 sequence 1: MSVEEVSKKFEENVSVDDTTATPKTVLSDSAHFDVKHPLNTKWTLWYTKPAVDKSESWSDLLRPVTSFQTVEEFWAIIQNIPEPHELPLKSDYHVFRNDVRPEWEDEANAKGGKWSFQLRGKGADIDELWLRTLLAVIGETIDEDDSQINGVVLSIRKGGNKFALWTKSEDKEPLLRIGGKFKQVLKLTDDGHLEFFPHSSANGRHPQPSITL
T1 sequence 2: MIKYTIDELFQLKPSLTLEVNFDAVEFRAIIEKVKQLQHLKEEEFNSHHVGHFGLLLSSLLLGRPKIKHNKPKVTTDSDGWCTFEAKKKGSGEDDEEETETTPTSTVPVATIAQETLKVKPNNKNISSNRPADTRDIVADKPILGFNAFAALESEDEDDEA

[2] = molecular target: T2, eIF4E (untagged, co-expressed with p20);His6x-p20 WT (Saccharomyces cerevisiae;Saccharomyces cerevisiae) (UniProt P07260+P12962); assay: EMSA; conditions: 5' m7GpppG cap (Vaccinia Capping System); Buffer A: 10 mM sodium phosphate pH 7.5, 100 mM NaCl, 2.5 mM MgCl2, 1 mM DTT, 0.05% NP40; MST at 25 C (proteins for capped RNA MST RED-tris-NTA labeled in …)
T2 sequence 1: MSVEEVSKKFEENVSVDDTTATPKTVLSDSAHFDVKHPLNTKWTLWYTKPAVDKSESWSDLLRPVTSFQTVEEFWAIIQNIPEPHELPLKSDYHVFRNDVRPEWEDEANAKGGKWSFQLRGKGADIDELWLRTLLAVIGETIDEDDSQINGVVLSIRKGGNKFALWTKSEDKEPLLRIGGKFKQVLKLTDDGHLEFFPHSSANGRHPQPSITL
T2 sequence 2: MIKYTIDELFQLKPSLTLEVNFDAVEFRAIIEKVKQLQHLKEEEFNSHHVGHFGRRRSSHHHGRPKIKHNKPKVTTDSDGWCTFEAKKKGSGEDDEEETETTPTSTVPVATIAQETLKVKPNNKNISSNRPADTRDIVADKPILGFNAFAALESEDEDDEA

[3] = molecular target: T1, eIF4E (untagged, co-expressed with p20);His6x-p20 6x mutant R55L;R56L;R57L;H60L;H61L;H62L (Saccharomyces cerevisiae;Saccharomyces cerevisiae); assay: MST; conditions: 5' m7GpppG cap (Vaccinia Capping System); Buffer A: 10 mM sodium phosphate pH 7.5, 100 mM NaCl, 2.5 mM MgCl2, 1 mM DTT, 0.05% NP40; MST at 25 C (proteins for capped RNA MST RED-tris-NTA labeled in …)
[4] = molecular target: T3, His6x-eIF4E;p20 N-terminal 18aa peptide (Saccharomyces cerevisiae;Saccharomyces cerevisiae) (UniProt P07260+P12962); assay: MST; conditions: equimolar 18aa p20 peptide; 5' m7GpppG cap (Vaccinia Capping System); Buffer A: 10 mM sodium phosphate pH 7.5, 100 mM NaCl, 2.5 mM MgCl2, 1 mM DTT, 0.05% NP40; MST at 25 C (proteins for capped RNA MST RED-tris-NTA labeled in …)
T3 sequence 1: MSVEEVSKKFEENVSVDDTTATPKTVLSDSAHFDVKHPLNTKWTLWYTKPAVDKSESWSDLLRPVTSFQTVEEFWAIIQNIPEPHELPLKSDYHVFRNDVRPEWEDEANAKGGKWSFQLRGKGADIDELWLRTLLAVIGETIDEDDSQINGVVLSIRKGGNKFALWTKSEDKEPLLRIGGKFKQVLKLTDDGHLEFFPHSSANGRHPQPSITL
T3 sequence 2: MIKYTIDELFQLKPSLTL

[5] = molecular target: T2, eIF4E (untagged, co-expressed with p20);His6x-p20 WT (Saccharomyces cerevisiae;Saccharomyces cerevisiae); assay: MST; conditions: 5' m7GpppG cap (Vaccinia Capping System), Buffer A: 10 mM sodium phosphate pH 7.5, 100 mM NaCl, 2.5 mM MgCl2, 1 mM DTT, 0.05% NP40, MST at 25 C (proteins for capped RNA MST RED-tris-NTA labeled in …)
[6] = molecular target: T4, eIF4E (untagged, co-expressed with p20);His6x-p20 6x mutant (Saccharomyces cerevisiae;Saccharomyces …, UniProt P07260;P12962 1-213;1-161, |R55L;R56L;R57L;H60L;H61L;H62L); assay: MST; Buffer A: 10 mM sodium phosphate pH 7.5, 100 mM NaCl, 2.5 mM MgCl2, 1 mM DTT, 0.05% NP40; MST at 25 C (proteins for capped RNA MST RED-tris-NTA labeled in buffer B: 20 mM HEPES-KOH pH 7.5, 50 mM NaCl, 1 mM DTT); EMSA 1.5% agarose, 1x TBE, temperature not stated; conditions: protein: recombinant;recombinant; tags: ;N-terminal His6x; copies: 1;1; label: 3' FAM
T4 sequence 1: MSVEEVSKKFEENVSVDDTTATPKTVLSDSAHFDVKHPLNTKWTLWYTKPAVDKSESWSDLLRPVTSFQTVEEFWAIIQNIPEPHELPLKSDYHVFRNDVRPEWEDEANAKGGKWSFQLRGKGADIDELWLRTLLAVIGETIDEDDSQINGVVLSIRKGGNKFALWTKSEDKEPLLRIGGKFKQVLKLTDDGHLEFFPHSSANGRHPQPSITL
T4 sequence 2: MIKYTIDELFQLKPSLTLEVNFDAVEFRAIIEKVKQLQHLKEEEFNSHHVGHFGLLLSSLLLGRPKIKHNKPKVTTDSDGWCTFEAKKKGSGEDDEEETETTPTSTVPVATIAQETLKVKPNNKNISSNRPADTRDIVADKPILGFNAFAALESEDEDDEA

[7] = molecular target: T5, eIF4E (untagged, co-expressed with p20);His6x-p20 WT (Saccharomyces cerevisiae;Saccharomyces …, UniProt P07260;P12962 1-213;1-161, |); assay: as above; conditions: protein: recombinant;recombinant; tags: ;N-terminal His6x; copies: 1;1; label: 3' FAM
T5 sequence 1: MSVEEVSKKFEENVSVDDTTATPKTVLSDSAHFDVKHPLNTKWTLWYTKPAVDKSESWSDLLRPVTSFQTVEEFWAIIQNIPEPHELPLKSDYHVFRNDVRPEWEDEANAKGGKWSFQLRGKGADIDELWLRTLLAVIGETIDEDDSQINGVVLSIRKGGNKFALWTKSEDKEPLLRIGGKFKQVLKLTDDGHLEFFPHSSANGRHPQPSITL
T5 sequence 2: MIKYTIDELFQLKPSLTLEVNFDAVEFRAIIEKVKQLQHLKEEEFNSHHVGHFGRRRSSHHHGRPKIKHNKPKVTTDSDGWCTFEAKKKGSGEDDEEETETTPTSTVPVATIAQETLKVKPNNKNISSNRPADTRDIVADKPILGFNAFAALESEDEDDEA

[8] = molecular target: T5, eIF4E (untagged, co-expressed with …); assay: EMSA; Buffer A: 10 mM sodium phosphate pH 7.5, 100 mM NaCl, 2.5 mM MgCl2, 1 mM DTT, 0.05% NP40; MST at 25 C (proteins for capped RNA MST RED-tris-NTA labeled in buffer B: 20 mM HEPES-KOH pH 7.5, 50 mM NaCl, 1 mM DTT); EMSA 1.5% agarose, 1x TBE, temperature not stated; conditions: protein: recombinant;recombinant; tags: ;N-terminal His6x; copies: 1;1; label: 3' FAM

GGGAACAAAAGCUGGUAAUCAAGAAUUACAAGAAACAAAAAUUCAAGUAAAUAACAGAUAAUAC [capped SSA1 5'UTR RNA, 64 nt]
Kd [1]: 285 nM
Kd [2]: 64.9 nM
Kd [3]: 424 nM
Kd [4]: 211 nM
Kd [5]: 44.9 nM
Kd ([5]; control of the 6x mutant experiment): 46.9 nM

GUAUUACAAGAAACAAAAAUUCAAGUAAAUAACAGAUAAU (ssRNA) [uncapped SSA1 5'UTR RNA, 40 nt]
Kd [6]: 35500 nM
Kd [7]: 6240 nM
Kd [8]: 8800 nM
